The text below walks through data of PMC3140604.

For orientation: Km means the concentration of substrate that gives half-maximal velocity.

Substrate in data set [1]: CC(=O)O
The data set is described as follows: cells, lysate or membranes. The class given is cell-based, Homo sapiens. The note with it: Na+ competes with nicotinate for uptake via SLC5A8.

Substrate in data set [2]: O=C(O)C(Cl)Cl
The data set is described as follows: cells, lysate or membranes. Format: cell-based, Homo sapiens. The note with it: Na+ competes with nicotinate for uptake via SLC5A8.

B1: SLC5A8 (Homo sapiens) (protein)
chain: MDTPRGIGTFVVWDYVVFAGMLVISAAIGIYYAFAGGGQQTSKDFLMGGRRMTAVPVALSLTASFMSAVTVLGTPSEVYRFGAIFSIFAFTYFFVVVISAEVFLPVFYKLGITSTYEYLELRFNKCVRLCGTVLFIVQTILYTGIVIYAPALALNQVTGFDLWGAVVATGVVCTFYCTLGGLKAVIWTDVFQVGIMVAGFASVIIQAVVMQGGISTILNDAYDGGRLNFWNFNPNPLQRHTFWTIIIGGTFTWTSIYGVNQSQVQRYISCKSRFQAKLSLYINLVGLWAILTCSVFCGLALYSRYHDCDPWTAKKVSAPDQLMPYLVLDILQDYPGLPGLFVACAYSGTLSTVSSSINALAAVTVEDLIKPYFRSLSERSLSWISQGMSVVYGALCIGMAALASLMGALLQAALSVFGMVGGPLMGLFALGILVPFANSIGALVGLMAGFAISLWVGIGAQIYPPLPERTLPLHLDIQGCNSTYNETNLMTTTEMPFTTSVFQIYNVQRTPLMDNWYSLSYLYFSTVGTLVTLLVGILVSLSTGGRKQNLDPRYILTKEDFLSNFDIFKKKKHVLSYKSHPVEDGGTDNPAFNHIELNSDQSGKSNGTRL
B1: the Km in data set [1] is 1600 ± 100 µM; in data set [2], 36 ± 7 µM.
